# According to the nanobody polyreactivity screen of Harvey et al. (2022):
# Experiment: yeast display, Sf9 membrane polyspecificity reagent, FACS + sequencing; frameworks hold sequencing errors
# Method in brief: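 Using colony PCR, genes from sorted yeast display clones were amplified, then sequenced on MiSeq at 2 × 250 and filtered by CDR length. The clones had been stained with 10% biotinylated, detergent-solubilized Sf9 membrane reagent for 1 hour at 4 °C and sorted by FACS into low and high (top ~1%) gates on anti-HA and streptavidin fluorescence. Polyreactivity labels come from the gate of origin.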
row,Sequence,polyreactivity (PSR sort gate)
1,QVQLVESGGGLVQAGGSLRLSCAPSGITFRQFTMGWYRQAPGKERELVAAITSSGRTYYADSVKGRFTISLDNAKNTVYLQMNSLKPEDTAVYYCAAGVGGAAHPVSYFTYDYWGQGTQVTVSS,high polyreactivity
2,QVQLVESGGGLVQAGGILRLSCASSGSIFGYYAMGWYRQAPGKERELVAAIDSGGGSTYYADSVKERFTISRDNAKNTVYFQMNSLKPEDTAVYYCAAVSYSYPSLLYEYWGQGTQVTVSS,low polyreactivity
3,QVQLVESGGGLVQAGGSLRLSCAASGSIRRYAMGWYRQAPGKERELVAAISGSGVSTYYADSVKGRFTISRDNAKNTVYLQMNSLKPEDTAVYYCAAAAIYFRYDYWGQGTQVTVSS,high polyreactivity
4,QVQLVESGGGLVQAGGSLRLSCAASGFTLYRYAMAWYRQAPGKERELVAAISWSGGSTYYADSVKGRFTISRDNAKNTVYLQMNSLKPEDTAVYYCAATGYVTRSKRYDYWGQGTQVTVSS,high polyreactivity
5,QVQLVESGGGLVQAGGSLRLSCAASGSIFGGYTMGWYRQAPGKERELVAAISRRGGNTYYADSVKGRFTISRDNAKNTVYLQMKSLKPEDTAVYYCAVRWPSARIPVKLDYWGQGTQVTVSS,high polyreactivity
6,QVQLVESGGGLVQAGGSLRLSCAASGRIFRWYAMGWYRQAPGKERELVAGINYGGGRTYYADSVKGRFTISRDNAKNTVYLQMNSLNPEDTAVYYCAAGISGHYYWGQGTQVTVSS,high polyreactivity
7,QVQLVESGGCLVQARGSLRLSCAASGFIFRSYAMGWYRPAPGKERELVAAISRSGGSTYYADSVKGRFTISRDNAKNTVYLQMNSLKPEDTAVYYCAAEYRIPYFFTYVYWGQGTKVTVSS,high polyreactivity
8,QVQLVESGGGLVQAGGSLRLSCAASGSTFTGYAMGWYRQAPGQERELVAAISRSGGSTYYADSVKGRFTISRDNAKNTVYLQMNSLKPEDTAVYYCNARGFTRYTVGRNYWGQGTQVTVSS,high polyreactivity
9,QVQLVESGGGLVQAGGSLRLSCAASGRTSIGNAMGWYRQAPGKERELVASISWSGGSTYYADSVKGRFTISRDNAKNTVYLQMNSLKPEDTAVYYCAKTAYFLVFNEHLHKKRYDSWGLGTQVTVSS,low polyreactivity
10,QDQLVESAGGLVQAGGSLRLICAATGSNFNRYAMGWYRQAAGKEREFVAAITRRGGNTYYADSVKGRFTISRDHPKNTVYLQMNSLKPVDTAVYYCAAPFYFPAGLLYYENNYWGHGTQVTVSS,high polyreactivity
11,QVQLVESGGGLVQAGGSLRLSCAASGSIFYDNAMGWYRQAPGNERELVAAIDDSDRTNYADSVKGRFTITRDNAKNTVYLQMNSLKPEDTAVYYCARDRWKWHYGYDYWGQGTQVTVSS,low polyreactivity
12,QVQLVESGGGLVQAGGSLRLSCAASGSTFTTNVMGWYRQAPGKERELVAAISWSSGSTYYADSVKGRFTISRDNAKNTVYLQMNSLKPEDTAVYYCAAKSTYVVSKMNYWGQGTQVTVSS,high polyreactivity
13,QVQLVESGGGLVQAGGSLRLSCAASGFTFSRNVMGWYRQAPGKERELVADITLSGASTYYADSVKGRFTISRDNAKNTVYLQMNSLKPEDTADYYCAADPYHWRWGWRHDYWGQGTQVTVSS,low polyreactivity
14,QVQLVESGGGLVQAGGSLRLSCAASGRTLKYNAMGWYRQAPGKERELVAAISYSGSSTYYADSVKGRFTISRDNAKNTVYLQMNSLKPEDTAVYYCNTARPTAAYDYWGQGTQVTVSS,low polyreactivity
15,QVQLVESGGGLVQAGGSLRLSCAASGSTFLRYAMGWYRQAPGKERELVAAISLSGGRTHYADSVKGRFTISRDNAKNTVYLQMNSLKPEDTAVYYCAARNTGPVQYYYWGQGTQVTVSS,low polyreactivity
16,QVQLVESGGGLVQAGGSLRLSCAASGSIFSIYAMGWYRQAPGKERDFVASITVTDGSTYYADSVKGRFTISRDIAKNTVYLQMNSLKPEDTAVYYCFADGWYALYEWLAVSGYYWGQGTQVTVST,low polyreactivity
17,QVQLVESGGGLVQAGGSLRLSCAPSGRTFGRYAMGWYRQAPGKERELVAAITRSGGSTYYADSVKGRFTISRDIAKNTVYLQMNSLKPEDTAVYYCNAGWRLGRGYWGQGTEVTVSS,high polyreactivity
